Measured values taken from US20220119450A1 (UNIVERSITY OF TARTU, published 2022).
No end group written: not given here.

T1: recombinant His-tagged tenascin-C C domain (TNC-C)
T1 construct: 112 amino acids, expressed in E. coli from pET28a+ with N-terminal His-tag
T1 chain: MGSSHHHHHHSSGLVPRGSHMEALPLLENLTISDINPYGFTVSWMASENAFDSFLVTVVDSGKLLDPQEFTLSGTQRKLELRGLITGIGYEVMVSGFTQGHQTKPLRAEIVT

T2: recombinant His-tagged Neuropilin-1 b1b2 domain (UniProt O14786 273-586, limits assumed)
T2 construct: domain: b1b2; also called NRP-1; NRP1
T2 sequence (looked up): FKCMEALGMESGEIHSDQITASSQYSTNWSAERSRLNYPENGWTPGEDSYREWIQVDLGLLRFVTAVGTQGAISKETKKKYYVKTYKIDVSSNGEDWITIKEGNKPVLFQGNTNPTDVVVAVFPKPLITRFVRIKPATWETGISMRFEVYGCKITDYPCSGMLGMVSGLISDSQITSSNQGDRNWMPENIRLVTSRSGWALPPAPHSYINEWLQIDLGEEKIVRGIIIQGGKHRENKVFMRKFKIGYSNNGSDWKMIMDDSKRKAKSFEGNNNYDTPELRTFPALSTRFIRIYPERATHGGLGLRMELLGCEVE

B1: PL1 peptide displayed on T7 phage (PPRRGLIKLKTS) (peptide)
peptide: PPRRGLIKLKTS
modifications: not fully specified (N-terminus); also: displayed on T7 phage capsid protein
notes: also called PL1 phage
B2: PL3 peptide displayed on T7 phage (AGRGRLVR) (peptide)
peptide: AGRGRLVR
modifications: also: displayed on T7 phage, fusion site not given here
notes: also called PL3 phage; PL-3 phage

Legend:
[1] = target: T1, recombinant His-tagged tenascin-C C …; test: binding specificity, T7 peptide phage
Method: (§1) To identify bispecific peptides that interact with both TNC-C and FN-EDB, cross screens were performed on both targets. During the first round of selection, microtiter plates coated with 20 μg/ml recombinant purified TNC-C were blocked with PBS containing 1% bovine serum albumin (BSA), followed by incubation with 5×10⁸ pfu of phages in PBS at 4° C. overnight, by washes to remove background, and by phage rescue and amplification in BLT5403 strain of E. coli (Novagen, EMD Biosciences, MA, USA) (Teesalu et al., Methods Enzymol. 503:35-56 (2012)). The following rounds of biopanning were carried on Ni-NTA Magnetic Agarose Beads (QIAGEN, Hilden, Germany) coated with hexahistidine-tagged FN-EDB (3 μg/μl beads) at room temperature. After 5 rounds of selection, a set of random clones was sequenced, and individual peptide-phage clones and control (G7 peptide-displaying or insertless) phages were incubated with FN-EDB and TNC-C-coated magnetic beads. RPARPAR phage (SEQ ID NO:5) and His-tagged NRP-1 b1b2 domain were used as positive control (Teesalu et al., Proc. Natl. Acad. Sci. U.S.A 106:16157-62 (2009)). To address the specificity of the peptide phage binding to the FN-EDB and TNC-C, the protein-coated beads were pre-incubated with 20 μg/ml blocking rabbit polyclonal antibodies.
(§2) Immobilized FAM-PL1 was probed with recombinant His-tagged EDB and TNC-C (or control BSA), followed by sequential incubation with rabbit anti-His-tag primary antibody, secondary goat anti-rabbit HRP antibody and a chromogenic peroxidase reaction.

[2] = target: T3, recombinant His-tagged fibronectin extra domain B (FN-EDB); test: binding specificity, T7 peptide phage
T3 construct: 112 amino acids, expressed in E. coli from pET28a+ with N-terminal His-tag; also called fibronectin EDB-domain
Method: as §1, §2

[3] = target: T2, recombinant His-tagged Neuropilin-1 …; test: T7 phage binding to protein-coated magnetic beads
[4] = target: T1, recombinant His-tagged tenascin-C C …; test: T7 phage binding to recombinant protein
[5] = target: T3, recombinant His-tagged fibronectin …; test: T7 phage binding to recombinant protein
[6] = target: T2, recombinant His-tagged Neuropilin-1 …; test: T7 phage binding to recombinant NRP-1 b1b2

| Binder | binding result [1] | binding result [2] | binding result [3] | binding result [4] | binding result [5] | fold more than heptaglycine control phage [6] [fold] |
| --- | --- | --- | --- | --- | --- | --- |
| B1 | binds | binds | no binding | – | – | – |
| B2 | – | – | – | binds | no binding | ~200 |
